Source: the supplement of paper PMC10724198
± gives the standard deviation of the averaged measurements.

System: Saccharomyces cerevisiae
Experiment: protein stability index of tFT-peptide fusion (C-terminal peptide) (PSI (0-1 scale)); higher = more stable (slower turnover)
Settings: genetic background: wild type; temperature: 30 C
Experimental: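 Multiplexed protein stability (MPS) profiling in S. cerevisiae. Random 12-aa peptides (tFT-X12 library) are fused to the C-terminus of a sfGFP-mCherry tandem fluorescent timer, after mCherry and a GGGS linker. Cells are FACS-sorted into 8 mCherry/sfGFP bins and deep-sequenced. The protein stability index (PSI) is the read-weighted bin average, scaled from 0 (unstable) to 1 (stable). Only peptides with >10 reads are reported; cells were grown at 30 °C in SC-His with glucose.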
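Note: PSI is a weighted mean of sequencing reads over stability bins, variants kept only with over 10 reads, mCherry proximal and sfGFP distal, peptide attached via GGGS linker.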

| Sequence | protein stability index |
| --- | --- |
| FSLFGVGQITFL | 0.683 ± 0.056 |
| KKNQKKNEKHIK | 0.689 ± 0.041 |
| SGRSQERMYARW | 0.656 ± 0.012 |
| YQLEDSNEKVEN | 0.712 ± 0.085 |
| FTHVKEVNTGNR | 0.672 ± 0.053 |
| SHTSPSTPPPSP | 0.681 ± 0.0085 |
| PLPPPPTPPVPV | 0.672 ± 0.015 |
| SLSPTPVAPPLN | 0.678 ± 0.009 |
| PNAPSLSPPSLF | 0.624 ± 0.066 |
| PPLPPPPPRLPA | 0.636 ± 0.025 |
| PPWPPYPRPPSS | 0.679 ± 0.053 |
| GAAVSGGRARCP | 0.712 ± 0.064 |
| FCGFTSLCVGDL | 0.731 ± 0.039 |
| SPPSPLRPPPPS | 0.7 ± 0.01 |
| AAVGELLFTSLV | 0.699 ± 0.022 |
| ARAPPSSYPPSG | 0.66 ± 0.012 |
| SSTLPVYLSTTL | 0.662 ± 0.023 |
| APWSQLRSPPAL | 0.769 ± 0.037 |
| RRSGILGSSFVF | 0.75 ± 0.047 |
| SGIWLKRVTMYR | 0.7027 ± 0.0047 |
| RPPRPGFCLFLP | 0.652 ± 0.0067 |

| Sequence | protein stability index |
| --- | --- |
| IGQCYLRHRGMS | 0.5544 ± 0.0053 |
| GRYLRRDLVGVF | 0.606 ± 0.051 |
| PRVCSLLPSGSF | 0.711 ± 0.014 |
| IWGSILGVEANV | 0.685 ± 0.039 |
| KTKRMKSIKKSK | 0.7099 ± 0.0046 |
| GYRGRDETNATN | 0.65 ± 0.025 |
| CLCCTSFPPPFP | 0.673 ± 0.057 |
| PYTHFFSPPFWP | 0.766 ± 0.04 |
| CPFLSISSNCSM | 0.667 ± 0.027 |
| DFFPVSGLANEH | 0.636 ± 0.092 |
| TGREWCFERGCW | 0.842 ± 0.14 |
| LPGPICSPPTGS | 0.693 ± 0.011 |
| VARADLVVTFRI | 0.703 ± 0.073 |
| RFLAHLVRPFCG | 0.722 ± 0.039 |
| LTGFYFFFDMTL | 0.6366 ± 0.0032 |
| CLCPPPPLPVPR | 0.699 ± 0.092 |
| GCCGGGGVEGLE | 0.695 ± 0.022 |
| DLFPTLFFIRSR | 0.689 ± 0.073 |
| TAKQDSGVSTPV | 0.732 ± 0.12 |
| SGAPAQLSLSSL | 0.6568 ± 0.0032 |
| KRIVGIFINRKI | 0.586 ± 0.0096 |

| Sequence | protein stability index |
| --- | --- |
| LTSPPPPPARVP | 0.739 ± 0.11 |
| ESVKVTIAKVMK | 0.708 ± 0.016 |
| RGTGPPGALREE | 0.653 ± 0.046 |
| LRPQKIPASSEA | 0.678 ± 0.0077 |
| TPNLHPPSAATP | 0.668 ± 0.038 |
| RKKKKKNKNEKE | 0.713 ± 0.04 |
| ILCQLRKFKFQN | 0.58 ± 0.013 |
| YTKTGRQRHHCR | 0.677 ± 0.011 |
| FYYRYDRRTRCV | 0.548 ± 0.012 |
| SFFRFRIPLFPS | 0.669 ± 0.065 |
| PPPPPLLTRPLP | 0.699 ± 0.081 |
| AGLWWGGCAAGA | 0.804 ± 0.037 |
| SPTPLLPLASSP | 0.695 ± 0.052 |
| RGLLLSRRWFSP | 0.641 ± 0.099 |
| PPPPPLLLPPPA | 0.651 ± 0.038 |
| FDACPAPFGLVV | 0.67033 ± 0.0004 |
| LFAAPARTSAPC | 0.779 ± 0.055 |
| KKIDQAKETSLS | 0.68 ± 0.011 |
| SPPFPRPCPFTP | 0.644 ± 0.086 |
| TPPPFRLPAPSL | 0.71 ± 0.037 |
| LLDLVVTAMCVL | 0.587 ± 0.032 |

| Sequence | protein stability index |
| --- | --- |
| DKKKRRERKDRT | 0.6746 ± 0.0061 |
| RSPPAPPHSCPP | 0.69 ± 0.14 |
| VWGAGGGVWGLG | 0.793 ± 0.0085 |
| VAVAAPVVRAVI | 0.69 ± 0.054 |
| SLLCDQSSLGQC | 0.747 ± 0.11 |
| ATCSILPSRLSI | 0.6124 ± 0.0011 |
| RPRLSGGLGGVG | 0.644 ± 0.051 |
| AFQLGMILSLVA | 0.507 ± 0.013 |
| QAKNNKKQKGWQ | 0.646 ± 0.046 |
| SMARVWLVWRWK | 0.673 ± 0.035 |
| RCLGVCRAESLP | 0.682 ± 0.034 |
| SPPPPPPPPFPL | 0.672 ± 0.033 |
| VIDHALWCYVGG | 0.605 ± 0.0087 |
| SHRTRPSQTPTQ | 0.643 ± 0.05 |
| SERNENKTGKVQ | 0.747 ± 0.11 |
| ACFVVDHGPLHL | 0.695 ± 0.031 |
| FFSWFGCSCYAR | 0.779 ± 0.023 |
| GPGAGRRKSAER | 0.61607 ± 0.00056 |
